Laboratory results taken from publication PMC3472039 (Journal of molecular biology, 2012).
Square brackets hold non-standard residues; d marks the D form. Ends that are not written are not given here. SeMet = C[Se]CC[C@H](N)C(=O)O

Biological target: the molecule itself
Assay: crystal structure

B1: SeMet-QkI-Qua1(14-67) C35S (domain or fragment, UniProt Q9QYS9 14-67, looked up)
chain: TPDYL[SeMet]QL[SeMet]NDKKL[SeMet]SSLPNFSGIFNHLERLLDEEISRVRKD[SeMet]YNDTLNGSTEK
  stoichiometry N: 2
